Data reported in patent US20240247080A1, “GLP1/GIP/NPY2 RECEPTOR TRIPLE AGONISTS” (Boehringer Ingelheim International GmbH, priority 2022, published 2024).
Starred links: 1 amine or outer side, 2 acyl side, 3 side chain; linkers in the order of their positions; H or OH if unused. Non-standard residues stand in square brackets, D forms with d. Groups on a side chain read outwards from the residue. No end group written: not given here. *: point of attachment. C18 diacid = O=C(O)CCCCCCCCCCCCCCCCC(=O)*; γGlu = O=C(O)[C@H](CCC(=O)[*:2])N[*:1]; εLys = N[C@@H](CCCCN[*:1])C(=O)[*:2]; AEEA = NCCOCCOCC(=O)O; Aib = CC(C)(N)C(=O)O; OEG = OEG spacer

T1: human neuropeptide Y2 receptor (human, UniProt P49146 1-381)
T1 sequence (looked up): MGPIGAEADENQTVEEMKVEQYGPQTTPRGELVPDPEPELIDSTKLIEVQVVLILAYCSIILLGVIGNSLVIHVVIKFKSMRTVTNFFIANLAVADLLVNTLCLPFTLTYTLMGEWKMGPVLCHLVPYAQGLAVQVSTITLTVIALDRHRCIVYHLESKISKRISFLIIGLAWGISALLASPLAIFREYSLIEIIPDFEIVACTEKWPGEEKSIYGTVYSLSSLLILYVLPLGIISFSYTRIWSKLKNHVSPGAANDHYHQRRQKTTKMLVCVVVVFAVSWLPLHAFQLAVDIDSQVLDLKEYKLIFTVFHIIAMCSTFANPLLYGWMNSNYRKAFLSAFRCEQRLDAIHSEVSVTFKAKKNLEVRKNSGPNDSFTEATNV

T2: human GIP receptor (human, UniProt P48546 22-466)
T2 sequence (looked up): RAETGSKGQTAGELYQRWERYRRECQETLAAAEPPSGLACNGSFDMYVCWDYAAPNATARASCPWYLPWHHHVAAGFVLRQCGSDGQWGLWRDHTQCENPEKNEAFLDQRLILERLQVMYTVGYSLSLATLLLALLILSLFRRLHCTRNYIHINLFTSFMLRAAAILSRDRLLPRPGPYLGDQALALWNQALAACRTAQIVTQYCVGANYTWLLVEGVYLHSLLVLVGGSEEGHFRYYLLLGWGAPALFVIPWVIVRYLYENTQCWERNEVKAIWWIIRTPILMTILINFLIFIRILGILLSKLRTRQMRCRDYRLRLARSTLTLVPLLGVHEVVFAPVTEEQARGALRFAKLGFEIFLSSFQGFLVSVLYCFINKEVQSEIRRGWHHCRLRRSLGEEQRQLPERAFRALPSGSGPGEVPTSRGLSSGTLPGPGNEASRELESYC

B1: Compound 262 (peptide)
peptide: Y[Aib]EGTFTSDYSI[Aib]LEKQAE[Aib]AFVEWLIK([γGlu-γGlu-γGlu-γGlu-C18 diacid])GGPSEGASLRHYYNWLTRQRY-NH2
modifications: also: TFA salt
B2: Compound 263 (peptide)
peptide: Y[Aib]EGTFTSDYSI[Aib]LEKQAQ[Aib]AFVEWLIK([εLys-γGlu-γGlu-γGlu-γGlu-γGlu-C18 diacid])GGPSEPASLRHYYNWLTRQRY-NH2
modifications: also: TFA salt
B3: Compound 270 (peptide)
peptide: Y[Aib]EGTFTSDYSI[Aib]LEKQAQ[Aib]AFVQWLIK([AEEA-AEEA-γGlu-γGlu-γGlu-γGlu-C18 diacid])GGPSEGASLRHYYNWLTRQRY-NH2
modifications: also: TFA salt
B4: Compound 264 (peptide)
peptide: Y[Aib]EGTFTSDYSI[Aib]LEKQAQ[Aib]AFVQWLIK([Glu-Glu-Glu-Glu-Glu-Glu-C18 diacid])GGPSEGASLRHYYNWLTRQRY-NH2
modifications: also: TFA salt
B5: Compound 268 (peptide)
peptide: Y[Aib]EGTFTSDYSI[Aib]LEKQAQ[Aib]AFVQWLIK([γGlu-γGlu-γGlu-γGlu-C18 diacid])GGPSEGASLRHYYNWLTRQRY-NH2
modifications: also: TFA salt
B6: Compound 272 (peptide)
peptide: Y[Aib]EGTFTSDYSI[Aib]LEKQAQ[Aib]AFVEWLIK([γGlu-γGlu-γGlu-γGlu-C18 diacid])GGPEEGASLRHYYNWLTRQRY-NH2
modifications: also: TFA salt
B7: Compound 278 (peptide)
peptide: Y[Aib]EGTFTSDYSI[Aib]LEKQAE[Aib]AFVEWLIKGGPSEGASLRHYYNWLTRQRY-NH2
modifications: not fully specified (residue 28); also: TFA salt
B8: Compound 266 (peptide)
peptide: Y[Aib]EGTFTSDYSI[Aib]LEKQAQ[Aib]AFVQWLIK([OEG-OEG-γGlu-γGlu-γGlu-C18 diacid])GGPSEGASLRHYYNWLTRQRY-NH2
modifications: also: TFA salt
B9: Compound 267 (peptide)
peptide: Y[Aib]EGTFTSDYSI[Aib]LEKQAQ[Aib]AFVQWLIK([εLys-γGlu-γGlu-γGlu-γGlu-γGlu-C18 diacid])GGPSEGASLRHYYNWLTRQRY-NH2
modifications: also: TFA salt
B10: Compound 274 (peptide)
peptide: Y[Aib]EGTFTSDYSI[Aib]LEKQAQ[Aib]EFVEWLIK([AEEA-γGlu-γGlu-γGlu-C18 diacid])GGPSEGASLRHYYNWLTRQRY-NH2
modifications: also: TFA salt

Target: human GLP-1 receptor (human, UniProt P43220 24-463)
Test: cell-based or functional assay

Binder | EC50 hGLP1R 0.5% hP (CreLuc) [nM] | EC50 hGLP1R 100% hP (CreLuc) [nM]
B1 | 0.13 | 4.28
B2 | 0.32 | 5.21
B3 | 0.07 | 1.69
B4 | 0.11 | 3.95
B5 | 0.08 | 1.55
B6 | 0.31 | 15.6
B7 | 0.56 | 13
B8 | 0.1 | 2.21
B9 | 0.07 | 1.44
B10 | 0.41 | 17.6

Target: T1, human neuropeptide Y2 receptor
Test: cell-based or functional assay

Binder | EC50 hNPY2R 0.5% hP (CreLuc) [nM] | EC50 hNPY2R 100% hP (CreLuc) [nM]
B1 | 13.2 | 58.2
B2 | 15.8 | 83.2
B3 | 9.52 | 21.1
B4 | 16.8 | 81.2
B5 | 9.86 | 47.3
B6 | 23.8 | 113
B7 | 17.5 | 88.6
B8 | 7.2 | 22.9
B9 | 9.25 | 27.6
B10 | 18.1 | 74.6

Target: T2, human GIP receptor
Test: cell-based or functional assay

Binder | EC50 hGIPR 0.5% hP (CreLuc) [nM] | EC50 hGIPR 100% hP (CreLuc) [nM]
B1 | 0.08 | 0.53
B2 | 0.12 | 1.5
B3 | 0.12 | 0.71
B4 | 0.28 | 1.82
B5 | 0.17 | 1.01
B6 | 0.24 | 3.01
B7 | 0.14 | 1.38
B8 | 0.13 | 0.65
B9 | 0.12 | 1.18
B10 | 0.23 | 1.78
